Where two headings read alike, the source gives them in different places.
Key:
[1] = target: Giardia lamblia tryptophanyl-tRNA synthetase (Giardia lamblia (strain WB)); experiment: SEC
[2] = target: Giardia lamblia tryptophanyl-tRNA synthetase (Giardia lamblia (strain WB)); experiment: SEC; remark: listed apart in the source

stoichiometry N [1]: 2
stoichiometry N [2]: 2
Substance: Giardia lamblia tryptophanyl-tRNA synthetase (enzyme)

— PMC2885457
